Assay results from PMC9482650, “Quantitative fragmentomics allow affinity mapping of interactomes” (Nature Communications, 2022).

B1: SLC6A3, Q01959 (peptide)
chain: QFTLRHWLKV
B2: MARCHF4, Q9P2E8 (peptide)
chain: RELVMRVTTV
B3: AKAP10, O43572 (peptide)
chain: DQPLEKSTKL

What follows are binders tested against T1, PTPN13_1, Q12923 (assay: holdup assay). Settings: plain residues with an end cap or a label only (N-terminal biotin on a linker: ado-ado).
T1 sequence (Q12923 1088-1188, limits assumed, looked up): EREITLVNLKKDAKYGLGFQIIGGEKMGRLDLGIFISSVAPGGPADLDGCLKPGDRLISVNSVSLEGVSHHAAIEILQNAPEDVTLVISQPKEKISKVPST
Design: key: below the threshold = too weak to quantify, mostly under pKd 3.1 to 4

Binder	pKd
B1	below the threshold
B2	below the threshold
B3	below the threshold

What follows are binders tested against DLG1_3, Q12959 (assay: holdup assay). Settings: plain residues with an end cap or a label only (N-terminal biotin on a linker: ado-ado).
Chain of DLG1_3, Q12959 (Q12959 457-571): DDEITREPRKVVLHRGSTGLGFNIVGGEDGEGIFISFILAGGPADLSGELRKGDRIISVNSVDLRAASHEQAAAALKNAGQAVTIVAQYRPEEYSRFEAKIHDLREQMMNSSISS
Design: key: below the threshold = too weak to quantify, mostly under pKd 3.1 to 4

Binder	pKd
B1	below the threshold
B2	5.12
B3	below the threshold

The binders below were run against LIMK2, P53671 (assay: holdup assay). Settings: plain residues with an end cap or a label only (N-terminal biotin on a linker: ado-ado).
Chain of LIMK2, P53671 (P53671 143-248): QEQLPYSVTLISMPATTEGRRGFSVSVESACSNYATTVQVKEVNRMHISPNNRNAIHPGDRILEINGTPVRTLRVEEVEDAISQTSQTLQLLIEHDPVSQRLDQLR
Design: key: below the threshold = too weak to quantify, mostly under pKd 3.1 to 4

Binder	pKd
B1	below the threshold
B2	below the threshold
B3	below the threshold

These binders were tested against T2, NHERF3_3, Q5T2W1 (assay: holdup assay). Settings: plain residues with an end cap or a label only (N-terminal biotin on a linker: ado-ado).
T2 sequence (Q5T2W1 238-333, limits assumed, looked up): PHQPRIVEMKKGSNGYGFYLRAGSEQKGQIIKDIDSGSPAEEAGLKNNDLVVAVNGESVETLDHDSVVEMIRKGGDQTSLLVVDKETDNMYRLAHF
Design: key: below the threshold = too weak to quantify, mostly under pKd 3.1 to 4

Binder	pKd
B1	below the threshold
B2	below the threshold
B3	4.79

These binders were tested against T3, DLG3_2, Q92796 (assay: holdup assay). Settings: plain residues with an end cap or a label only (N-terminal biotin on a linker: ado-ado).
T3 sequence (Q92796 221-321, limits assumed, looked up): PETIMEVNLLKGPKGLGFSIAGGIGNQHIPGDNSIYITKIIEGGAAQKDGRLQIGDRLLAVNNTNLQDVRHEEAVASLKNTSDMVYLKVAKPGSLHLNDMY
Design: key: below the threshold = too weak to quantify, mostly under pKd 3.1 to 4

Binder	pKd
B1	below the threshold
B2	5.22
B3	4.14

The binders below were run against T4, RADIL, Q96JH8 (assay: holdup assay). Settings: plain residues with an end cap or a label only (N-terminal biotin on a linker: ado-ado).
T4 sequence (Q96JH8 971-1071, limits assumed, looked up): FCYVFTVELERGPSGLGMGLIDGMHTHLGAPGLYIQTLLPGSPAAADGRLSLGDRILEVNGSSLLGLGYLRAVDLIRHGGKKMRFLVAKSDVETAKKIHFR
Design: key: below the threshold = too weak to quantify, mostly under pKd 3.1 to 4

Binder	pKd
B1	4.42
B2	4.74
B3	below the threshold

What follows are binders tested against T5, RHPN1, Q8TCX5 (assay: holdup assay). Settings: plain residues with an end cap or a label only (N-terminal biotin on a linker: ado-ado).
T5 sequence (Q8TCX5 508-602, limits assumed, looked up): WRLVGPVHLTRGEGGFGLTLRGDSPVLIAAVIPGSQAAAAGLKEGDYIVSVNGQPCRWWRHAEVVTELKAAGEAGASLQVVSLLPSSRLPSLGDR
Design: key: below the threshold = too weak to quantify, mostly under pKd 3.1 to 4

Binder	pKd
B1	below the threshold
B2	4.06
B3	3.96

These binders were tested against Inadl_3, Q8NI35 (assay: holdup assay). Settings: plain residues with an end cap or a label only (N-terminal biotin on a linker: ado-ado).
Chain of Inadl_3, Q8NI35 (Q8NI35 359-469): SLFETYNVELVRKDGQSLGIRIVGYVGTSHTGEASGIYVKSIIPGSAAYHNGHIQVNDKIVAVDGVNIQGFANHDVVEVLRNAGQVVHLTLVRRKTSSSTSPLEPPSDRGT
Design: key: below the threshold = too weak to quantify, mostly under pKd 3.1 to 4

Binder	pKd
B1	below the threshold
B2	4.03
B3	below the threshold

These binders were tested against Inadl_9, Q8NI35 (assay: holdup assay). Settings: plain residues with an end cap or a label only (N-terminal biotin on a linker: ado-ado).
Chain of Inadl_9, Q8NI35 (Q8NI35 1530-1615): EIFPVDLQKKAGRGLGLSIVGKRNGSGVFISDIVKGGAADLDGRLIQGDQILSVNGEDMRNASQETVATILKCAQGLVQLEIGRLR
Design: key: below the threshold = too weak to quantify, mostly under pKd 3.1 to 4

Binder	pKd
B1	below the threshold
B2	3.82
B3	below the threshold

The binders below were run against MAGI1_2, Q96QZ7 (assay: holdup assay). Settings: plain residues with an end cap or a label only (N-terminal biotin on a linker: ado-ado).
Chain of MAGI1_2, Q96QZ7 (Q96QZ7 456-580): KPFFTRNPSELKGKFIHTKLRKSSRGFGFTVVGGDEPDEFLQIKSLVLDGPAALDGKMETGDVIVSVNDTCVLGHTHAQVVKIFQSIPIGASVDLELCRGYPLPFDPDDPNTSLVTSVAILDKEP
Design: key: below the threshold = too weak to quantify, mostly under pKd 3.1 to 4

Binder	pKd
B1	below the threshold
B2	4.81
B3	below the threshold

These binders were tested against AHNAK1, Q09666 (assay: holdup assay). Settings: plain residues with an end cap or a label only (N-terminal biotin on a linker: ado-ado).
Chain of AHNAK1, Q09666 (Q09666 4-100): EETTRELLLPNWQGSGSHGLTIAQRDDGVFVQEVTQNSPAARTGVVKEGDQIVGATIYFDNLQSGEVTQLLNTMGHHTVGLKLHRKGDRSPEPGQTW
Design: key: below the threshold = too weak to quantify, mostly under pKd 3.1 to 4

Binder	pKd
B1	below the threshold
B2	below the threshold
B3	below the threshold

The binders below were run against LNX1_2, Q8TBB1 (assay: holdup assay). Settings: plain residues with an end cap or a label only (N-terminal biotin on a linker: ado-ado).
Chain of LNX1_2, Q8TBB1 (Q8TBB1 371-470): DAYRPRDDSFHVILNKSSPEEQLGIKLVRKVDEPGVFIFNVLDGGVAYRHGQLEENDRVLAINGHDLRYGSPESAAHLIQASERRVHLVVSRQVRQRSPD
Design: key: below the threshold = too weak to quantify, mostly under pKd 3.1 to 4

Binder	pKd
B1	3.84
B2	4.58
B3	below the threshold

The binders below were run against MAGI2_4, Q86UL8 (assay: holdup assay). Settings: plain residues with an end cap or a label only (N-terminal biotin on a linker: ado-ado).
Chain of MAGI2_4, Q86UL8 (Q86UL8 772-865): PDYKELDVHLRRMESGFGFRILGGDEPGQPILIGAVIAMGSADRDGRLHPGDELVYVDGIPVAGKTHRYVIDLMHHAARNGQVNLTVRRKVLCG
Design: key: below the threshold = too weak to quantify, mostly under pKd 3.1 to 4

Binder	pKd
B1	3.5
B2	4.82
B3	below the threshold

The binders below were run against NHERF4_1, Q86UT5-2 (assay: holdup assay). Settings: plain residues with an end cap or a label only (N-terminal biotin on a linker: ado-ado).
Chain of NHERF4_1, Q86UT5-2 (Q86UT5 other isoform, or with tags, fused parts or gaps): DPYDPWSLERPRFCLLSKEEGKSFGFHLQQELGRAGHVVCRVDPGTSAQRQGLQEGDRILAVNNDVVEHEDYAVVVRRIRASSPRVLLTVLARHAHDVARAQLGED
Design: key: below the threshold = too weak to quantify, mostly under pKd 3.1 to 4

Binder	pKd
B1	below the threshold
B2	below the threshold
B3	4.28

What follows are binders tested against T6, LIN7A, O14910 (assay: holdup assay). Settings: plain residues with an end cap or a label only (N-terminal biotin on a linker: ado-ado).
T6 sequence (O14910 103-200, limits assumed, looked up): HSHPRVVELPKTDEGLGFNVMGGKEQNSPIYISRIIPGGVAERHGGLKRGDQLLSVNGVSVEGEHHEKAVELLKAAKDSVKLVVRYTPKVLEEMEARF
Design: key: below the threshold = too weak to quantify, mostly under pKd 3.1 to 4

Binder	pKd
B1	below the threshold
B2	3.7
B3	below the threshold

These binders were tested against PTPN3, P26045 (assay: holdup assay). Settings: plain residues with an end cap or a label only (N-terminal biotin on a linker: ado-ado).
Chain of PTPN3, P26045 (P26045 505-587): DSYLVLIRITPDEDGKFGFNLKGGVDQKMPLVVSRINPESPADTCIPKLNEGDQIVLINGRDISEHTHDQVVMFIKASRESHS
Design: key: below the threshold = too weak to quantify, mostly under pKd 3.1 to 4

Binder	pKd
B1	below the threshold
B2	4.54
B3	4.62

The binders below were run against T7, DLG3_1, Q92796 (assay: holdup assay). Settings: plain residues with an end cap or a label only (N-terminal biotin on a linker: ado-ado).
T7 sequence (Q92796 125-227, limits assumed, looked up): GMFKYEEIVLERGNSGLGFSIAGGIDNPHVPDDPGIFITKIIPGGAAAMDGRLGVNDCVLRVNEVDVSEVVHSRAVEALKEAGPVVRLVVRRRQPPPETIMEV
Design: key: below the threshold = too weak to quantify, mostly under pKd 3.1 to 4

Binder	pKd
B1	below the threshold
B2	4.38
B3	below the threshold

The binders below were run against T8, SNTG1, Q9NSN8 (assay: holdup assay). Settings: plain residues with an end cap or a label only (N-terminal biotin on a linker: ado-ado).
T8 sequence (Q9NSN8 52-150, limits assumed, looked up): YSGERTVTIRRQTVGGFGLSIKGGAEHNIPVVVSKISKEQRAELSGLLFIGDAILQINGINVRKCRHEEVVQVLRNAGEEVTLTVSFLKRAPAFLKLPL
Design: key: below the threshold = too weak to quantify, mostly under pKd 3.1 to 4

Binder	pKd
B1	below the threshold
B2	4.95
B3	below the threshold

These binders were tested against T9, MPDZ_5, O75970 (assay: holdup assay). Settings: plain residues with an end cap or a label only (N-terminal biotin on a linker: ado-ado).
T9 sequence (O75970 695-796, limits assumed, looked up): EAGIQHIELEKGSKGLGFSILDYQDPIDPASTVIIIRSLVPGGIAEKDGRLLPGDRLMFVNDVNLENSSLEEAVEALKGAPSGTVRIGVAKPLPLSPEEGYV
Design: key: below the threshold = too weak to quantify, mostly under pKd 3.1 to 4

Binder	pKd
B1	below the threshold
B2	below the threshold
B3	below the threshold

The binders below were run against T10, SNTG2, Q9NY99 (assay: holdup assay). Settings: plain residues with an end cap or a label only (N-terminal biotin on a linker: ado-ado).
T10 sequence (Q9NY99 68-166, limits assumed, looked up): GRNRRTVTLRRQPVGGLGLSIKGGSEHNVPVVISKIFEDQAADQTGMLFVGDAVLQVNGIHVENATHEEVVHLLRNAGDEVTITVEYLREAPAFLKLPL
Design: key: below the threshold = too weak to quantify, mostly under pKd 3.1 to 4

Binder	pKd
B1	below the threshold
B2	4.64
B3	3.64

Each binder was assayed against T11, DFNB31_1, Q9P202 (assay: holdup assay). Settings: plain residues with an end cap or a label only (N-terminal biotin on a linker: ado-ado).
T11 sequence (Q9P202 135-233, limits assumed, looked up): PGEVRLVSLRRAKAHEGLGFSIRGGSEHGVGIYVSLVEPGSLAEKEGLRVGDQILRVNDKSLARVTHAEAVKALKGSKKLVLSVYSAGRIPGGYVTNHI
Design: key: below the threshold = too weak to quantify, mostly under pKd 3.1 to 4

Binder	pKd
B1	3.47
B2	3.97
B3	3.73

Each binder was assayed against Inadl_10, Q8NI35 (assay: holdup assay). Settings: plain residues with an end cap or a label only (N-terminal biotin on a linker: ado-ado).
Chain of Inadl_10, Q8NI35 (Q8NI35 1673-1763): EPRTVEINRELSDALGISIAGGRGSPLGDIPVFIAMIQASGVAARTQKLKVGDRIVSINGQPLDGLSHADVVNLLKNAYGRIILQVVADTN
Design: key: below the threshold = too weak to quantify, mostly under pKd 3.1 to 4

Binder	pKd
B1	below the threshold
B2	below the threshold
B3	below the threshold

What follows are binders tested against GORASP2, Q9H8Y8 (assay: holdup assay). Settings: plain residues with an end cap or a label only (N-terminal biotin on a linker: ado-ado).
Design: key: below the threshold = too weak to quantify, mostly under pKd 3.1 to 4

Binder	pKd
B1	4.56
B2	5.54
B3	below the threshold

Each binder was assayed against SCRIB_2, Q14160 (assay: holdup assay). Settings: plain residues with an end cap or a label only (N-terminal biotin on a linker: ado-ado).
Chain of SCRIB_2, Q14160 (Q14160 857-960): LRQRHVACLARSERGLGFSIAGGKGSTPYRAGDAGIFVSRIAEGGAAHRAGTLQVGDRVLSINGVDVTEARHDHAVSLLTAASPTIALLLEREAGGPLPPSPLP
Design: key: below the threshold = too weak to quantify, mostly under pKd 3.1 to 4

Binder	pKd
B1	below the threshold
B2	4.28
B3	below the threshold

Each binder was assayed against TJP1_3, Q07157 (assay: holdup assay). Settings: plain residues with an end cap or a label only (N-terminal biotin on a linker: ado-ado).
Chain of TJP1_3, Q07157 (Q07157 416-512): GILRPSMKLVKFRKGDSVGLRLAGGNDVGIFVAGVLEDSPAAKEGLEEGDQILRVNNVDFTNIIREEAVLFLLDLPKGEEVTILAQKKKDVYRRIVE
Design: key: below the threshold = too weak to quantify, mostly under pKd 3.1 to 4

Binder	pKd
B1	below the threshold
B2	below the threshold
B3	below the threshold

The binders below were run against FRMPD2_2, Q68DX3 (assay: holdup assay). Settings: plain residues with an end cap or a label only (N-terminal biotin on a linker: ado-ado).
Chain of FRMPD2_2, Q68DX3 (Q68DX3 944-1038): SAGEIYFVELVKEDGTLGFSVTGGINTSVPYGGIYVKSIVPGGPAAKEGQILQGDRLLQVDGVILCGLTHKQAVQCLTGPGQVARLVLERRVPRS
Design: key: below the threshold = too weak to quantify, mostly under pKd 3.1 to 4

Binder	pKd
B1	below the threshold
B2	4.06
B3	below the threshold

What follows are binders tested against FRMPD2_3, Q68DX3 (assay: holdup assay). Settings: plain residues with an end cap or a label only (N-terminal biotin on a linker: ado-ado).
Chain of FRMPD2_3, Q68DX3 (Q68DX3 1073-1166): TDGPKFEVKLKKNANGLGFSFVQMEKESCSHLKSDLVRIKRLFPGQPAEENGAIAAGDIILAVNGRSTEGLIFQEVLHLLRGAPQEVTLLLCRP
Design: key: below the threshold = too weak to quantify, mostly under pKd 3.1 to 4

Binder	pKd
B1	below the threshold
B2	below the threshold
B3	below the threshold
